These results are taken from patent EP2545075B1 (NovelMed Therapeutics, Inc., dated 2020).

Residue numbers refer to the chain shown, from its start.

In experiment [1] the target is T1, human properdin (human, UniProt P27918 28-469).
T1 construct: also called antigen properdin
Nature of the experiment: Properdin binding assay (Fig. 27).

The target in experiment [2] is T1, human properdin. In words: cell-based or functional assay.
In experiment [3] the target is T1, human properdin. Nature of the experiment: Competition ELISA: properdin (50 nM) plus antibody on C3b-coated wells. (In general: An ELISA detects its analyte on a solid surface through an enzyme-linked reagent.)
In experiment [4] the target is T1, human properdin. Nature of the experiment: Properdin ELISA.

T1 sequence (P27918 28-469 limits assumed): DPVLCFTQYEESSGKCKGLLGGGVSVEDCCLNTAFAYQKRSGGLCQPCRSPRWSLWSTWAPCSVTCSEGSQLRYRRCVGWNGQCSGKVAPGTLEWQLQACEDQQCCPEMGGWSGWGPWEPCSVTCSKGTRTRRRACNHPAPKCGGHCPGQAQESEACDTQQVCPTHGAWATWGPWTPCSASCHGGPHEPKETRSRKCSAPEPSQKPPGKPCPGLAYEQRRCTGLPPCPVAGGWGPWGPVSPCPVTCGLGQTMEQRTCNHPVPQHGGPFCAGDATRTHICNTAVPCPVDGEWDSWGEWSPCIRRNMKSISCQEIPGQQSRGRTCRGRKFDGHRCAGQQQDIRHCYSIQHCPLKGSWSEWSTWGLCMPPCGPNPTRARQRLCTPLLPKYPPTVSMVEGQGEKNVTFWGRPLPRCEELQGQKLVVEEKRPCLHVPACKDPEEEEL

B1: BAP010hum03 (antibody, human IgG1, V domains shown)
VH: EVQLVQSGAEVKKPGESLRISCKGSGYIFTNYPIHWIRQSPSRGLEWLGFIDPGGGYDEPDERFRDRVTISADKSISTAYLQWSSLKASDTAMYYCARRGGGYYLDYWGQG
VL: DIQMTQSPSSLSASVGDRVTITCRASQDISFFLNWYQQKPGKAPKLLIYYTSRYHSGVPSRFSGSGSGTEFTLTISSLQSEDFAVYYCQHGNTLPWTFGQG
notes: Humanized clone; The variable domains were cloned into the mammalian expression vector used for human IgG1/kappa; also called BAP010hum03_HC
Regarding B1, the binding result with human properdin [1] is recorded as “binds”.

B2: BAP010hum10 (antibody, human IgG1, V domains shown)
VH: QVQLQESGPGLVKPSQTLSLTCTVSGYIFTNYPIHWVRQATGQGLEWMGFIDPGGGYDEPDERFRDRVTITADKSTSTAYMELSSLRSEDTAVYYCARRGGGYYLDYWGQG
VL: B1 VL with V58I, S60P, S67Y, L73F, Q79E, S80A, F83A, V85T
notes: Humanized clone; The variable domains were cloned into the mammalian expression vector used for human IgG1/kappa; also called BAP010hum10_HC
For B2, the binding result with human properdin [1] is reported as “binds”.

B3: NM9401-IgG (antibody, V domains shown)
VH: QVQLQQSAPELARPGASVKMSCTASGYIFTNYPIHWVKQRPGQGLEWIGFIDPGGGYDEPDERFRDRATLTADKSSSTAYMQLSSLTSEDSAIYYCARRGGGYYLDYWGQGTTLTVSS
VL: DIQMTQTTSSLSASLGDRVTISCRASQDISFFLNWYQQKPDGTVKLLIYYTSRYHSGVPSRFSGSGSGTDFSLTINNLEQEDFATYFCQHGNTLPWTFGGGTKLEIK
modifications: Biotinylated in Example 5 (site not stated).
Turning to B3, in the experiment with human properdin [2], the “IC50 of inhibition in erythrocyte lysis assay using rabbit erythrocytes” value lay in the range of 20 to 30 nM.

B4: NM9401-Fab (Fab, V domains shown)
VH: B3 VH
VL: B3 VL
notes: Fab fragment of the murine antibody NM9401; also called anti-properdin Fab
What is called IC50 is the concentration that gives 50% inhibition. On to B4, for which, in the experiment with human properdin [3], the IC50 amounted to 72 nM and the “molar ratio of antibody to properdin” value came out at 1.2.

B5: BAP010_1 (antibody, IgG1, V domains shown)
VH: B3 VH
VL: B3 VL
notes: Chimeric full-length IgG1/kappa carrying the variable domains of NM9401, expressed in CHO-S cells; also called chimeric anti-properdin monoclonal antibody; recombinant antibody BAP010_1
Usually Kd stands for the equilibrium constant for the complex coming apart. High values mean a looser complex, low ones a tighter complex. Molecule B5 registered a Kd in the experiment with human properdin [4] of approximately 0.054 nM. In addition, the “IC50 of inhibition in erythrocyte lysis assay using rabbit erythrocytes” value with human properdin [2] was 20 to 30 nM.

B6: NM9401-F(ab')2 (other)
VH: B3 VH
VL: B3 VL
modifications: F(ab')2 has two identical arms joined by hinge disulfides. The letters give one arm's variable domains.
notes: F(ab')2 fragment of the murine antibody NM9401; also called anti-properdin F(ab')2
For B6, in the experiment with human properdin [3], the IC50 amounted to 29 nM and the “molar ratio of antibody to properdin” value turned out to be 0.5.

B7: BAP010hum02 (antibody, human IgG1, V domains shown)
VH: QVQLQESGPGLVKPSQTLSLTCTVSGYIFTNYPIHWVRQAPGKGLEWVSFIDPGGGYDEPDERFRDRVTISVDTSKNQFSLKLSSVTAADTAVYYCARRGGGYYLDYWGQG
VL: EIVLTQSPATLSLSPGERATLSCRASQDISFFLNWFQQRPGQSPRRLIYYTSRYHSGIPPRFSGSGYGTDFTLTINNIESEDAAYYFCQHGNTLPWTFGQG
notes: Humanized clone; The variable domains were cloned into the mammalian expression vector used for human IgG1/kappa; also called BAP010hum02_HC
In the case of B7, the binding result in the experiment with human properdin [1] is on record as “binds”.
